Where “and” joins values, the source holds several entries; their conditions need not be identical. Equal entries are not always repeated.
B1: Forkhead box protein P1, Q9H334 (parent)
chain: MMQESGTETKSNGSAIQNGSGGSNHLLECGGLREGRSNGETPAVDIGAADLAHAQQQQQQALQVARQLLLQQQQQQQVSGLKSPKRNDKQPALQVPVSVAMMTPQVITPQQMQQILQQQVLSPQQLQVLLQQQQALMLQQQQLQEFYKKQQEQLQLQLLQQQHAGKQPKEQQQVATQQLAFQQQLLQMQQLQQQHLLSLQRQGLLTIQPGQPALPLQPLAQGMIPTELQQLWKEVTSAHTAEETTGNNHSSLDLTTTCVSSSAPSKTSLIMNPHASTNGQLSVHTPKRESLSHEEHPHSHPLYGHGVCKWPGCEAVCEDFQSFLKHLNSEHALDDRSTAQCRVQMQVVQQLELQLAKDKERLQAMMTHLHVKSTEPKAAPQPLNLVSSVTLSKSASEASPQSLPHTPTTPTAPLTPVTQGPSVITTTSMHTVGPIRRRYSDKYNVPISSADIAQNQEFYKNAEVRPPFTYASLIRQAILESPEKQLTLNEIYNWFTRMFAYFRRNAATWKNAVRHNLSLHKCFVRVENVKGAVWTVDEVEFQKRRPQKISGNPSLIKNMQSSHAYCTPLNAALQASMAENSIPLYTTASMGNPTLGNLASAIREELNGAMEHTNSNESDSSPGRSPMQAVHPVHVKEEPLDPEEAEGPLSLVTTANHSPDFDHDRDYEDEPVNEDME

Variants of: B1
Conditions: Homo sapiens, 37 °C, GdnHCl, fluorescence, transition: 3, structure 2KIU, whole UniProt chain shown

In the case of V539C, the denaturant m value (pH 5) is reported as 3.1 kcal/mol/M and 1.1 kcal/mol/M and the unfolding free energy (pH 5) is reported as 1.4 kcal/mol and 4.2 kcal/mol.

With S518C the denaturant m value (pH 5) was 3.2 kcal/mol/M and 1.4 kcal/mol/M and the denaturant m value (pH 7.8) was 2.7 kcal/mol/M and 2 kcal/mol/M.

H520A gave a denaturant m value (pH 5) of 5.8 kcal/mol/M, an unfolding free energy (pH 5) of 17.9 kcal/mol and a denaturant m value (pH 7.8) of 6.6 kcal/mol/M. The unfolding free energy (pH 7.8) was 20.2 kcal/mol.
